Reference: patent publication US20210213134A1, “THIOL-BASED MULTIVALENT DRUG DELIVERY COMPOSITIONS” (ORPRO THERAPEUTICS, INC., priority 2018, published 2021)
Numbering of substitutions follows the chain as printed. Entries after “also recorded” stand apart in the source; their conditions may differ.

B1: C35STRX: monocysteinic active site Cys32-Ser35 variant of human thioredoxin-1, mucus-targeting scaffold (protein)
chain: MVKQIESKTAFQEALDAAGDKLVVVDFSATWCGPSKMIKPFFHSLSEKYSNVIFLEVDVDDCQDVASECEVKCMPTFQFFKKGQKVGEFSGANKEKLEATINELV
B2: Oxidized (inactive) C35STRX: oxidized, inactive form of C35STRX used as control (protein)
chain: B1 chain
B3: biotinylated C35STRX (conjugate)
chain: B1 chain
B4: Azido-C35STRX (conjugate, UniProt P10599 2-105, looked up, variant C35S)
Thioredoxin: VKQIESKTAFQEALDAAGDKLVVVDFSATWCGPSKMIKPFFHSLSEKYSNVIFLEVDVDDCQDVASECEVKCMPTFQFFKKGQKVGEFSGANKEKLEATINELV
modifications: azido group
B5: TRX: endogenously secreted human epithelial protein thioredoxin-1, small (12 kDa) redox enzyme (protein)
chain: B1 chain with S35C

Tests used:
[1] = DTNB assay (percent reduction state, free sulfhydryl); type: physicochemical; conditions: Table 1
Method: C35STRX-antibiotic conjugates are dissolved in PBS to the original volume before lyophilization and assayed for stability over seven days in comparison to non-conjugated reduced C35STRX. C35STRX-antibiotic conjugate concentration is measured by BCA protein assay (Pierce). […] Degradation/aggregation of C35STRX-antibiotic conjugates is determined by the percentage of C35STRX-antibiotic conjugate monomers assayed by SEC using an Agilent 1100 HPLC system and a BioBasic SEC-300 250×4.6 column (ThermoScientific) with a 40 mM Na acetate, 450 mM Na chloride 2 mM EDTA (pH 5.5) buffer at a flow rate 0.350 mL/min and detection by absorbance at 280 nm (A280).
Codon-optimized synthetic oligonucleotides encoding Lys to Ala mutants of C35STRX cloned into vector pD861 (Atum, Newark, Calif.) are expressed solubly in BL21 ΔrhaB E. coli under rhamnose induction (0.1% w/v, 26 deg C.) in APF-LB medium with 0.05% w/v glucose substrate at an O.D.600 of 0.8 in 2.8 L Fernbach shake flasks at NRC (Montreal Canada). Following cell pellet lysis (EmulsiFlex-C3, Avestin, Ottawa Canada) protein is purified from clarified extracts using anion exchange chromatography (FPLC, Akta) and 5 kDa ultrafiltration/diafiltration (UF/DF). […] Physical characterization: C35S(KA)TRX concentration is measured by BCA Protein assay (Pierce).

[2] = target: T1, insulin disulfides (heterodimeric insulin) (Homo sapiens, UniProt P01308); assay: single-turnover insulin protein disulfide reduction assay (RP-HPLC of insulin heterodimer peak); type: biochemical; design: % reduction: concentration or dose not given beside the values; conditions: for % reduction / insulin heterodimer peak (RP-HPLC): pH 8
T1 construct: fully disulfide-bonded heterodimeric insulin
T1 sequence (P01308 25-54 limits assumed): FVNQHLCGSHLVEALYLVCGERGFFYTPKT
T1 sequence (P01308 90-110 limits assumed): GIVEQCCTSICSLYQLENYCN
Method: Left side of FIG. 1—polyacrylamide gel electrophoresis of native human thioredoxin-1 (TRX). Lane 1: Molecular weight standards; Lane 2: Oxidized TRX; Lane 3: Oxidized TRX following reaction with dithiothreitol (DTT); Lane 4: Oxidized TRX following reaction with reduced glutathione (GSH); Lane 5: Oxidized TRX following reaction with GSH followed by DTT. Right side of FIG. 1—TRX was oxidized by exposure to ambient air for one week then incubated with either DTT or GSH at pH 8 for 1 hour followed by purification over a size exclusion column to remove unreacted free DTT or GSH after which the TRX was collected and used in a single-turnover insulin protein-disulfide reduction assay. Oxidized TRX (bottom line), TRX reduced with DTT (top line) or TRX reduced with GSH (middle line) were incubated with fully disulfide-bonded heterodimeric insulin at pH 8. After 30 min, 60 min and 120 minutes aliquots were taken and diluted with 0.1% TFA and 17 uM (final) iodoacetic acid and analyzed over RP-HPLC. Absorbance was monitored at 214 nm and the peak area of the insulin heterodimer fraction was determined at each time point to quantify TRX protein disulfide-reducing activity.
C35STRX was oxidized and Lys residues were conjugated to an azido-PEG linker. The conjugated material was then reduced and tested for molecular weight using SDS-PAGE (FIG. 5D) and MALDI-TOF (FIG. 5E) and activity assessed using a single-turnover insulin protein disulfide reduction assay. From the gel and MALDI-TOF results there is no free C35STRX; however, the conjugated material retained about 33% of its activity in the insulin assay as compared to unreacted reduced C35STRX. See FIGS. 5A-5E and their descriptions above.
Insulin Activity Assay with C35STRX and Azido-C35STRX: C35STRX OD280 was 11.8, corresponding to a concentration of 1.69 mM. C35STRX a OD280 was 15, corresponding to a concentration of 2.14 mM. Azido-C35STRX OD280 was 4.0, corresponding to a concentration of 0.57 mM. pH 8 Insulin stock: […] of Tris pH8 and 572 µL H2O and 25 µL of insulin (10 mg/mL) and 10 µL of 0.5 M EDTA. C35STRX stock was 0.5 mM. Azido-C35STRX stock was 0.5 mM concentration.
The reaction was stopped by addition of 10 µL of 1 M iodoacetic acid and 400 µL of 0.1% TFA. Samples were analyzed by RP-HPLC for changes in the insulin heterodimer peak.

[3] = tested on: extracellular airway mucus; assay: immunohistochemical detection of thioredoxin after IT delivery to rat airways; type: in vivo; conditions: intratracheal (IT) delivery, IHC
Excerpt: FIG. 4 Immunohistochemical detection of thioredoxin following IT delivery to rat airways via Penn-Century micro-sprayer. […] Animals were sacrificed 4 hr post-dose and excised lungs fixed, sectioned and analyzed by IHC for immunodetection of thioredoxin.
Conversion of the thioredoxin active site to a monothiol allows thioredoxin homologue protein to remain covalently attached to targeted disulfides once it has reacted. […] Reduced thioredoxin homologue protein can remain bound to extracellular airway mucus for at least 4 hours following intratracheal (IT) delivery to normal rats with normal mucus as visualized by immunohistochemical detection (brown staining; FIG. 4, Top) using anti-human thioredoxin antisera. […] While time points later than 4 hours were not included in this study, normalization of mucociliary transport in human airway mucus on epithelia for up to 24 hours is observed confirming similar residence time/mucin binding duration for mucoadhesive conjugates.
Conversion of the thioredoxin active site to a reduced Cys32 monothiol allows thioredoxin variants to remain covalently attached to targeted disulfides once reacted. […]

[4] = tested on: human airway mucus on epithelia; assay: normalization of mucociliary transport in human airway mucus on epithelia; type: cell-based
rat = conditions: in vivo
mice = conditions: mouse, in vivo
[5] = tested on: human primary bronchial epithelia from CF and normal donors; type: cell-based
rats = assay: acute aerosol toxicity (nebulizer); type: in vivo
target proteins = assay: disulfide linkage to target proteins in vitro by HPLC and gel-shift; type: binding
porcine gastric mucin = assay: mucin binding direct ELISA; conditions: reduced biotinylated conjugate, various mucin concentrations
Method: To establish the feasibility of covalently binding conjugated monocysteinic active site Cys32-Ser35 thioredoxin (C35STRX) to mucins, conjugation of C35STRX via its N-terminal NH2 to a model payload (biotin) using EZ-Link™ Sulfo-NHS-SS-Biotin (ThermoFisher) was carried out. Dithiothreitol (DTT, 0.1 M) was used to generate active C35STRX conjugates by reduction of the C35STRX active site Cys. Following DTT removal (NAPS column, GE Healthcare), the mucin binding ability of reduced biotinylated 0.02 C35STRX was evaluated by direct ELISA using 96 well plates 0 (Costar 3370) coated with 100 μl of various concentrations of porcine gastric mucin (Sigma) in 100 mM Tris-HCl buffer (pH 9). 100 μL of biotinylated C35STRX in 50 mM Tris (pH 8) and 1 mM EDTA was then added and incubated for 2 hours, with washes performed between each step. 50 μL of avidin-horseradish peroxidase (HRP) was added and incubated for 30 min followed by 50 μL of tetramethylbenzidine (TMB) substrate. Reactions were stopped after 5 min with 100 μl 1N sulfuric acid. Absorbance at […] (Molecular Devices SpectraMax i3) was plotted against mucin concentration.

[6] = literature values; cited from earlier work

Molecule	% reduced [1]	% reduction ([2]; Table 3, 0 min)	insulin heterodimer peak (RP-HPLC) ([2]; Table 3, 0 min)	% reduction ([2]; Table 3, 90 min)	insulin heterodimer peak (RP-HPLC) ([2]; Table 3, 90 min)	% reduction ([2]; Table 4, 0 min)	insulin heterodimer peak (RP-HPLC) ([2]; Table 4, 0 min)	% reduction ([2]; Table 4, 90 min)	insulin heterodimer peak (RP-HPLC) ([2]; Table 4, 90 min)	other results
B1	109.4%	0%	8515.4	99.40%	50.2	0%	10602	97.70%	243.2	time remaining bound to extracellular airway mucus ([3]; normal rats): at least 4 hours; duration of normalization of mucociliary transport [4]: up to 24 hours; adverse inflammatory effects in lavage fluid (rat): No adverse inflammatory effects; adverse inflammatory effects in lavage fluid (mice): No adverse inflammatory effects; adverse inflammatory effects in vitro [5]: No adverse inflammatory effects; toxic effects in normal animals treated by aerosol (rats; normal animals, aerosol, high dose levels): lack of observed toxic effects; local or systemic toxicity, histopathology (rats; rats dosed acutely, aerosol via nebulizer, highest delivered concentration 40 mg/kg): No local or systemic toxicity or histopathological anomalies; disulfide linkage to target proteins (target proteins): stable disulfide linkages to target proteins
B2	–	–	–	–	–	–	–	–	–	binding to mucus or the epithelial surface ([3]; rats, 4 hr post-dose): did not bind mucus or the epithelial surface
B3	–	–	–	–	–	–	–	–	–	mucin binding (porcine gastric mucin): bind mucin in a dose-dependent fashion; also recorded: maintained full mucin binding activity with linear kinetics
B4	106.6%	0%	8959.8	32.69%	6030.6	0%	10213	33.07%	6835	activity retained in the insulin assay as compared to unreacted reduced C35STRX ([2]; up to 11 azido-PEG linkers on Lys): about 33%
B5	–	–	–	–	–	–	–	–	–	pKa of catalytic Cys thiol [6]: 6.2
